Data taken from PMC2779547.

Target: KcsA R64C-SL (potassium ion channel KcsA, R64C mutant, spin-labelled with MTSL) (UniProt P0A334)
Experiment: PELDOR

stoichiometry N: 4
Substance: KcsA R64C-SL (potassium ion channel KcsA, R64C mutant, spin-labelled with MTSL) (from UniProt P0A334 1-160) (natural protein)
